{"source": "paper PMC10018359", "about": "“Allosteric effects of E. coli SSB and RecR proteins on RecO protein binding to DNA” (Nucleic Acids Research, 2023)", "molecules": {"B1": {"name": "Escherichia coli RecO protein (natural protein, E. coli, UniProt P0A7H3 1-242, looked up)", "chain": "MEGWQRAFVLHSRPWSETSLMLDVFTEESGRVRLVAKGARSKRSTLKGALQPFTPLLLRFGGRGEVKTLRSAEAVSLALPLSGITLYSGLYINELLSRVLEYETRFSELFFDYLHCIQSLAGVTGTPEPALRRFELALLGHLGYGVNFTHCAGSGEPVDDTMTYRYREEKGFIASVVIDNKTFTGRQLKALNAREFPDADTLRAAKRFTRMALKPYLGGKPLKSRELFRQFMPKRTVKTHYE", "notes": "RecO, recombination mediator protein of the RecF pathway, E. coli; also called E. coli RecO; source: E. coli BL21(DE3) pLysS, plasmid pMCSG7, purified (Ni-NTA, HiTrap Heparin HP) after His-tag cleavage with TEV protease"}, "B2": {"name": "Escherichia coli RecR protein (natural protein, E. coli, UniProt P0A7H6 1-201, looked up)", "chain": "MQTSPLLTQLMEALRCLPGVGPKSAQRMAFTLLQRDRSGGMRLAQALTRAMSEIGHCADCRTFTEQEVCNICSNPRRQENGQICVVESPADIYAIEQTGQFSGRYFVLMGHLSPLDGIGPDDIGLDRLEQRLAEEKITEVILATNPTVEGEATANYIAELCAQYDVEASRIAHGVPVGGELEMVDGTTLSHSLAGRHKIRF", "notes": "RecR, recombination mediator protein, E. coli; in the complex with RecO found here it is a tetramer (RecR4O); also called E. coli RecR; source: E. coli BL21 Rosetta 2(DE3)pLysS, plasmid pMCSG7, purified (Ni-NTA), His-tag cleaved with TEV protease"}}, "key": {"[1]": {"target": "SSB-Ct peptide C-terminal tail (Escherichia coli) (UniProt P0AGE0)", "sequence (P0AGE0 whole entry, looked up)": "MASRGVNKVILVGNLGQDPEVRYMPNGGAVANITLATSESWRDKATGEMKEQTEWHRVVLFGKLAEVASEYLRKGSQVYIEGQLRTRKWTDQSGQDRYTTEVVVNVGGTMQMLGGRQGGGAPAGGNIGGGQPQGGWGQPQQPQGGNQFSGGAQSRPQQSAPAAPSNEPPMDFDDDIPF", "assay": "given as Ka", "settings": "cited from earlier work"}, "[2]": {"target": "B2", "assay": "AUC; sedimentation equilibrium, 18 000, 23 000 and 28 000 rpm, 25°C, buffer BTP; RecO 2.24 uM, RecR 8.96 uM, SSB-Ct 13.4 uM, Cy3-(dT)15 0.56 uM; absorbance of the Cy3-DNA at 546 nm; one-species fit", "settings": "both partners purified"}, "RecO": {"target": "T1, RecO (Escherichia coli, UniProt P0A7H3 1-242)", "T1 sequence": "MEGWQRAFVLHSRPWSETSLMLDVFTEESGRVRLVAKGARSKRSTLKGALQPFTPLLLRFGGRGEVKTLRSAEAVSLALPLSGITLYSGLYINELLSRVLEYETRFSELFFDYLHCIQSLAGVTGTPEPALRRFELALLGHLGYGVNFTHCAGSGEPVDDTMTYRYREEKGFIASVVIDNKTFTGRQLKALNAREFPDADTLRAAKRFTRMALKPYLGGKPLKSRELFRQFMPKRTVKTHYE", "assay": "light scattering; no SSB-Ct; onset at RecO/DNA 6; Buffer BTP: 20 mM Bis-Tris propane pH 8.0, 50 mM NaCl, 25% (v/v) glycerol, 1 mM TCEP, 25 C", "settings": "protein: recombinant; tags: His-tag cleaved with TEV (pMCSG7)"}, "RecO;RecR [3]": {"target": "T2, RecO;RecR (Escherichia coli;Escherichia coli, UniProt P0A7H3;P0A7H6 1-242;1-201, |)", "T2 sequence 1": "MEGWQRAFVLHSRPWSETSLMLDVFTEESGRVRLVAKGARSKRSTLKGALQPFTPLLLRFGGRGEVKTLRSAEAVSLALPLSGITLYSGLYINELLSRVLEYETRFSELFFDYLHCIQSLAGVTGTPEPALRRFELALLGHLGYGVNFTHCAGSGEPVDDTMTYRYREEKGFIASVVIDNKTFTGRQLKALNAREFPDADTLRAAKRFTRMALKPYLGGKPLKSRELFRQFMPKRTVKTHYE", "T2 sequence 2": "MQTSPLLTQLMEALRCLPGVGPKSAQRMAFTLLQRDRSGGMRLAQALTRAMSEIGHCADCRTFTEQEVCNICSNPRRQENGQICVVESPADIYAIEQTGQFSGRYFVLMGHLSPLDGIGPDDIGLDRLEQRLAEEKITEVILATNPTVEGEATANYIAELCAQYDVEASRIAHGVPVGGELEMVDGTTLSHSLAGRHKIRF", "assay": "AUC sedimentation velocity; no SSB-Ct; 5.4 S; Buffer BTP: 20 mM Bis-Tris propane pH 8.0, 50 mM NaCl, 25% (v/v) glycerol, 1 mM TCEP, 25 C", "settings": "protein: recombinant;recombinant; tags: His-tag cleaved with TEV (pMCSG7);His-tag cleaved with TEV (pMCSG7); label: 3'-Cy3"}, "[4]": {"target": "T3, RecO;SSB-Ct peptide (P15) (Escherichia coli;Escherichia coli, UniProt P0A7H3;P0AGE0 1-242;, |)", "assay": "AUC sedimentation velocity and equilibrium; 13.4 uM SSB-Ct; 1.2 S; 70.1 kDa, 2 RecO per DNA; Buffer BTP: 20 mM Bis-Tris propane pH 8.0, 50 mM NaCl, 25% (v/v) glycerol, 1 mM TCEP, 25 C", "settings": "tags: His-tag cleaved with TEV (pMCSG7);; copies: 1;1; label: 3'-Cy3"}, "[5]": {"target": "T4, RecO;RecR;SSB-Ct peptide (P15) (Escherichia coli;Escherichia …, UniProt P0A7H3;P0A7H6;P0AGE0 1-242;1-201;, ||)", "assay": "AUC sedimentation velocity; 13.4 uM SSB-Ct; 3.8 S; Buffer BTP: 20 mM Bis-Tris propane pH 8.0, 50 mM NaCl, 25% (v/v) glycerol, 1 mM TCEP, 25 C", "settings": "tags: His-tag cleaved with TEV (pMCSG7);His-tag cleaved with TEV (pMCSG7);; label: 3'-Cy3"}, "RecO;RecR [6]": {"target": "T2, RecO;RecR", "assay": "AUC sedimentation velocity; no SSB-Ct; 6.3 S; Buffer BTP: 20 mM Bis-Tris propane pH 8.0, 50 mM NaCl, 25% (v/v) glycerol, 1 mM TCEP, 25 C", "settings": "protein: recombinant;recombinant; tags: His-tag cleaved with TEV (pMCSG7);His-tag cleaved with TEV (pMCSG7); label: 3'-Cy3"}, "[7]": {"target": "T4, RecO;RecR;SSB-Ct peptide (P15)", "assay": "AUC sedimentation velocity; 13.4 uM SSB-Ct; 4.7 S; Buffer BTP: 20 mM Bis-Tris propane pH 8.0, 50 mM NaCl, 25% (v/v) glycerol, 1 mM TCEP, 25 C", "settings": "tags: His-tag cleaved with TEV (pMCSG7);His-tag cleaved with TEV (pMCSG7);; label: 3'-Cy3"}, "[8]": {"target": "T3, RecO;SSB-Ct peptide (P15)", "assay": "AUC sedimentation velocity; 13.4 uM SSB-Ct; 1.9 S; Buffer BTP: 20 mM Bis-Tris propane pH 8.0, 50 mM NaCl, 25% (v/v) glycerol, 1 mM TCEP, 25 C", "settings": "tags: His-tag cleaved with TEV (pMCSG7);; copies: 1;1; label: 3'-Cy3"}, "[9]": {"target": "T4, RecO;RecR;SSB-Ct peptide (P15)", "assay": "AUC sedimentation velocity and equilibrium; 13.4 uM SSB-Ct; 2.6 S; 131.1 kDa, RecR4O with one DNA; Buffer BTP: 20 mM Bis-Tris propane pH 8.0, 50 mM NaCl, 25% (v/v) glycerol, 1 mM TCEP, 25 C", "settings": "tags: His-tag cleaved with TEV (pMCSG7);His-tag cleaved with TEV (pMCSG7);; label: 3'-Cy3"}, "[10]": {"target": "T3, RecO;SSB-Ct peptide (P15)", "assay": "AUC sedimentation velocity and equilibrium; 13.4 uM SSB-Ct; 0.7 S; 31.8 kDa, 1 RecO per DNA; Buffer BTP: 20 mM Bis-Tris propane pH 8.0, 50 mM NaCl, 25% (v/v) glycerol, 1 mM TCEP, 25 C", "settings": "tags: His-tag cleaved with TEV (pMCSG7);; copies: 1;1; label: 3'-Cy3"}, "RecO;RecR [11]": {"target": "T2, RecO;RecR", "assay": "AUC sedimentation velocity; no SSB-Ct; 2.9 S; Buffer BTP: 20 mM Bis-Tris propane pH 8.0, 50 mM NaCl, 25% (v/v) glycerol, 1 mM TCEP, 25 C", "settings": "protein: recombinant;recombinant; tags: His-tag cleaved with TEV (pMCSG7);His-tag cleaved with TEV (pMCSG7); label: 3'-Cy3"}, "[12]": {"target": "the molecule itself", "assay": "AUC; sedimentation equilibrium, 18 000, 23 000 and 28 000 rpm, 25°C, buffer BTP; RecO 2.24 uM, RecR 8.96 uM, SSB-Ct 13.4 uM, Cy3-(dT)15 0.56 uM; absorbance of the Cy3-DNA at 546 nm; one-species fit"}, "[13]": {"target": "B1", "assay": "AUC; sedimentation velocity, 42,000 rpm, 25°C, buffer BTP; RecO 2.24 uM, RecR 8.96 uM, Cy3-(dT)L (L = 15, 35, 68, 140) 0.56 uM, in the absence and presence of SSB-Ct 13.4 uM; absorbance of the Cy3-DNA at 546 nm; c(s) distributions", "settings": "both partners purified"}, "[14]": {"target": "B1", "assay": "AUC; sedimentation equilibrium, 18 000, 23 000 and 28 000 rpm, 25°C, buffer BTP (pH 8.0, 50 mM NaCl, 25% glycerol, 1 mM TCEP); RecO 2.24 uM, SSB-Ct 13.4 uM, Cy3-(dT)15 or Cy3-(dT)35 0.56 uM; absorbance of the Cy3-DNA at 546 nm; one-species fit", "settings": "both partners purified"}, "[15]": {"target": "T4, RecO;RecR;SSB-Ct peptide (P15)", "assay": "AUC sedimentation velocity; 13.4 uM SSB-Ct; 4.8 S; Buffer BTP: 20 mM Bis-Tris propane pH 8.0, 50 mM NaCl, 25% (v/v) glycerol, 1 mM TCEP, 25 C", "settings": "tags: His-tag cleaved with TEV (pMCSG7);His-tag cleaved with TEV (pMCSG7);; label: 3'-Cy3"}, "[16]": {"target": "T3, RecO;SSB-Ct peptide (P15)", "assay": "AUC sedimentation velocity; 13.4 uM SSB-Ct; 2.1 S; Buffer BTP: 20 mM Bis-Tris propane pH 8.0, 50 mM NaCl, 25% (v/v) glycerol, 1 mM TCEP, 25 C", "settings": "tags: His-tag cleaved with TEV (pMCSG7);; copies: 1;1; label: 3'-Cy3"}, "RecO;RecR [17]": {"target": "T2, RecO;RecR", "assay": "AUC sedimentation velocity; no SSB-Ct; 5.7 S; Buffer BTP: 20 mM Bis-Tris propane pH 8.0, 50 mM NaCl, 25% (v/v) glycerol, 1 mM TCEP, 25 C", "settings": "protein: recombinant;recombinant; tags: His-tag cleaved with TEV (pMCSG7);His-tag cleaved with TEV (pMCSG7); label: 3'-Cy3"}}, "data": [{"molecule": "RecO (from UniProt P0A7H3)", "values": [{"measurement": "Kd", "setting": "[1]", "result": 83.3, "unit": "nM"}]}, {"molecule": "B1", "values": [{"measurement": "stoichiometry N", "setting": "[2]", "result": 1, "unit": "RecO per RecR tetramer"}]}, {"molecule": "(dT)70 (ssDNA) DNA: TTTTTTTTTTTTTTTTTTTTTTTTTTTTTTTTTTTTTTTTTTTTTTTTTTTTTTTTTTTTTTTTTTTTTT", "values": [{"measurement": "binding result", "setting": "RecO", "result": "binds"}]}, {"molecule": "TTTTTTTTTTTTTTTTTTTTTTTTTTTTTTTTTTT (ssDNA)", "note": "[Cy3-(dT)35]", "values": [{"measurement": "binding result", "setting": "RecO;RecR [3]", "result": "binds"}, {"measurement": "binding result", "setting": "[4]", "result": "binds"}, {"measurement": "binding result", "setting": "[5]", "result": "binds"}]}, {"molecule": "Cy3-(dT)68 (ssDNA) DNA: TTTTTTTTTTTTTTTTTTTTTTTTTTTTTTTTTTTTTTTTTTTTTTTTTTTTTTTTTTTTTTTTTTTT", "values": [{"measurement": "binding result", "setting": "RecO;RecR [6]", "result": "binds"}, {"measurement": "binding result", "setting": "[7]", "result": "binds"}, {"measurement": "binding result", "setting": "[8]", "result": "binds"}]}, {"molecule": "TTTTTTTTTTTTTTT (ssDNA)", "note": "[Cy3-(dT)15]", "values": [{"measurement": "binding result", "setting": "[9]", "result": "binds"}, {"measurement": "binding result", "setting": "[10]", "result": "binds"}, {"measurement": "binding result", "setting": "RecO;RecR [11]", "result": "binds"}]}, {"molecule": "B2", "values": [{"measurement": "stoichiometry N", "setting": "[12]", "result": 4}, {"measurement": "binding result", "setting": "[13]", "result": "binds"}]}, {"molecule": "PSNEPPMDFDDDIPF (source: bought: WatsonBio (Houston, TX))", "note": "[SSB-Ct peptide, composed of the 15 C-terminal amino acids of E. coli SSB]", "values": [{"measurement": "binding result", "setting": "[14]", "result": "binds"}]}, {"molecule": "Cy3-(dT)140 (ssDNA) DNA: TTTTTTTTTTTTTTTTTTTTTTTTTTTTTTTTTTTTTTTTTTTTTTTTTTTTTTTTTTTTTTTTTTTTTTTTTTTTTTTTTTTTTTTTTTTTTTTTTTTTTTTTTTTTTTTTTTTTTTTTTTTTTTTTTTTTTTTTTTTT", "values": [{"measurement": "binding result", "setting": "[15]", "result": "binds"}, {"measurement": "binding result", "setting": "[16]", "result": "binds"}, {"measurement": "binding result", "setting": "RecO;RecR [17]", "result": "binds"}]}]}
